{"source": "FireProtDB (doi:10.1021/bi00165a022)", "conditions": "Escherichia phage lambda, Thermal, DSC, Potassium phosphate 20 nM, whole UniProt chain shown"}
{"protein": "Regulatory protein cro wild type, P03040 (protein) MEQRITLKDYAMRFGQTKTAKDLGVYQSAINKAIHAGRKIFLTINADGSVYAEEVKPFPSNKKTTA", "values": [{"measurement": "Tm", "setting": "pH 5.18", "value": 35.5, "unit": "°C"}, {"measurement": "heat capacity change of unfolding", "setting": "pH 5.18", "value": 1.51, "unit": "kcal/mol/K"}, {"measurement": "unfolding enthalpy (calorimetric)", "setting": "pH 5.18", "value": 34.9, "unit": "kcal/mol"}, {"measurement": "unfolding enthalpy (van 't Hoff)", "setting": "pH 5.18", "value": 37.3, "unit": "kcal/mol"}, {"measurement": "Tm", "setting": "pH 5.48", "value": 38, "unit": "°C"}, {"measurement": "heat capacity change of unfolding", "setting": "pH 5.48", "value": 1.61, "unit": "kcal/mol/K"}, {"measurement": "unfolding enthalpy (calorimetric)", "setting": "pH 5.48", "value": 39, "unit": "kcal/mol"}, {"measurement": "unfolding enthalpy (van 't Hoff)", "setting": "pH 5.48", "value": 40.7, "unit": "kcal/mol"}, {"measurement": "Tm", "setting": "pH 6", "value": 44, "unit": "°C"}, {"measurement": "heat capacity change of unfolding", "setting": "pH 6", "value": 1.66, "unit": "kcal/mol/K"}, {"measurement": "unfolding enthalpy (calorimetric)", "setting": "pH 6", "value": 48.1, "unit": "kcal/mol"}, {"measurement": "unfolding enthalpy (van 't Hoff)", "setting": "pH 6", "value": 51, "unit": "kcal/mol"}, {"measurement": "Tm", "setting": "pH 7", "value": 46.2, "unit": "°C"}, {"measurement": "heat capacity change of unfolding", "setting": "pH 7", "value": 1.36, "unit": "kcal/mol/K"}, {"measurement": "unfolding enthalpy (calorimetric)", "setting": "pH 7", "value": 52.9, "unit": "kcal/mol"}, {"measurement": "unfolding enthalpy (van 't Hoff)", "setting": "pH 7", "value": 52.4, "unit": "kcal/mol"}]}
